Key:
[1] = biological target: E. coli SSB113 (E. coli) (UniProt P0AGE0)
[2] = biological target: E. coli SSBΔC1 (SSB lacking its C-terminal-most residue) (E. coli) (UniProt P0AGE0)
[3] = biological target: E. coli SSB-mixed (E. coli) (UniProt P0AGE0)

E. coli RecQ (wild type, full-length, hexahistidine-tagged) (from UniProt P15043 1-609) (enzyme)
Fold stimulation of RecQ helicase activity by SSB113 [1]: 0.9 fold
Fold stimulation of RecQ helicase activity by SSBΔC1 [2]: 0.6 fold
Fold stimulation of RecQ helicase activity by SSB-mixed [3]: 0.7 fold

Source: article PMC2735845
